This is an account of results in patent KR20150077770A (dated 2015).

Assay [1] deals with T1, HRS (Histidyl-tRNA synthetase), purified recombinant antigen (human, UniProt P12081 1-509, limits assumed).
T1 construct: It was immobilised on the GLC chip (SPR), coupled to Luminex beads and used as the ELISA standard; also called HRS 항원; 재조합 HRS 표준물질
T1 sequence (looked up): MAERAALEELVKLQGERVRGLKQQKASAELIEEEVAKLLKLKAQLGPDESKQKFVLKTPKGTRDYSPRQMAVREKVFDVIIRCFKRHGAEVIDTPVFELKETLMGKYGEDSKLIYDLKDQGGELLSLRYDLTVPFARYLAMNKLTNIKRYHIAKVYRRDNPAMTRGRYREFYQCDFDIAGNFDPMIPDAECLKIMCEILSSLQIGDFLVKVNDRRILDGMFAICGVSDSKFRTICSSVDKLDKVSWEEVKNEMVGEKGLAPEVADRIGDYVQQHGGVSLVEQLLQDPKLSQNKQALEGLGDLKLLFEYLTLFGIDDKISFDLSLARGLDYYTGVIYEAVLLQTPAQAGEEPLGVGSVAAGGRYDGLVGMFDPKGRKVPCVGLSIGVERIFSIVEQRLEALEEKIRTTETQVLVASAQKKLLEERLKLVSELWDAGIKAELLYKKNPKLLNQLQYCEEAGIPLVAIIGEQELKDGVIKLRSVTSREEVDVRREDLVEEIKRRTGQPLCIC
Briefly: SPR (ProteOn XPR36), HRS amine-coupled on GLC chip, purified scFv 500-30 nM injected, 25 C.

In assay [2] the target is T2, YRS (Tyrosyl-tRNA synthetase), purified recombinant (UniProt P54577 1-528, limits assumed).
T2 construct: also called 타이로실-tRNA 합성효소
T2 sequence (looked up): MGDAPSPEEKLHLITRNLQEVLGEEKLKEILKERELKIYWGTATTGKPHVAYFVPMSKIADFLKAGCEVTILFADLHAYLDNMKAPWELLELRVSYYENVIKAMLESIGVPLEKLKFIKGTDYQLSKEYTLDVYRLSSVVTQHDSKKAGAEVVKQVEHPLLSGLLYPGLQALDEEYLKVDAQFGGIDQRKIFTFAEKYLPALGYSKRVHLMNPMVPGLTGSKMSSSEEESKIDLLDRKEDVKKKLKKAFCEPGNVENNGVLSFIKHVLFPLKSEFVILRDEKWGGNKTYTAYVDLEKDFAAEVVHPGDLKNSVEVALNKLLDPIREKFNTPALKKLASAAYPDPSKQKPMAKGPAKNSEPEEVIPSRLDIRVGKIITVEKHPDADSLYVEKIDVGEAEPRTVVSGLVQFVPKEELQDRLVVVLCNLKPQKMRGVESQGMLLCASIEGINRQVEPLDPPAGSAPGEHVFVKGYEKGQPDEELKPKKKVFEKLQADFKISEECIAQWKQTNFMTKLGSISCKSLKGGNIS
Briefly: Luminex multiplex bead assay, anti-HA-biotin / SA-PE detection.

In assay [3] the target is T3, AIMP1 (Aminoacyl-tRNA-synthetase-interacting multifunctional protein 1), purified recombinant (UniProt Q12904 1-312, limits assumed).
T3 construct: also called AIMP1(p43); p43
T3 sequence (looked up): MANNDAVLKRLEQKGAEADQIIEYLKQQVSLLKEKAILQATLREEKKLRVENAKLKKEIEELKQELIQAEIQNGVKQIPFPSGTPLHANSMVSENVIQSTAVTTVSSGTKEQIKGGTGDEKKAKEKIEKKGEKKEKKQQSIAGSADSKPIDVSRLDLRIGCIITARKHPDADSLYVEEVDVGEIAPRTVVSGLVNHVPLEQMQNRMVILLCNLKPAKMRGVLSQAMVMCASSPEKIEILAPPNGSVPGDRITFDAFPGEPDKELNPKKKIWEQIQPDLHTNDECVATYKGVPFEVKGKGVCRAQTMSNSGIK
Described as above.

The target of assay [4] is T4, KRS (Lysyl-tRNA synthetase), purified recombinant (UniProt Q15046 1-597, limits assumed).
T4 construct: also called 리실-tRNA 합성효소
T4 sequence (Q15046 whole entry): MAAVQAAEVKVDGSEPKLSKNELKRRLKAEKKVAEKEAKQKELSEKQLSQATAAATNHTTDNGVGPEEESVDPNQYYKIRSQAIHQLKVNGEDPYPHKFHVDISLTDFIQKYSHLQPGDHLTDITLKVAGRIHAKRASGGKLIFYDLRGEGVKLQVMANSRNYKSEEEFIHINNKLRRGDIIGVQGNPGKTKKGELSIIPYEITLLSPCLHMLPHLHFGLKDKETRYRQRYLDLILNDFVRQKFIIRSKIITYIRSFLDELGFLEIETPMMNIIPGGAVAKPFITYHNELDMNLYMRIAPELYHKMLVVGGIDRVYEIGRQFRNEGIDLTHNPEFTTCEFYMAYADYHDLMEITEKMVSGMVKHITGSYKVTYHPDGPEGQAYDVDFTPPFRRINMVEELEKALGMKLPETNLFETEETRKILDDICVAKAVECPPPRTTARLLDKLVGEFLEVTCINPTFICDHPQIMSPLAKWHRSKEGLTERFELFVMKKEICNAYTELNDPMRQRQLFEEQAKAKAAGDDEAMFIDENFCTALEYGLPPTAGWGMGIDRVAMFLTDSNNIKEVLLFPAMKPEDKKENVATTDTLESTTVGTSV
The description is as above.

The target of assay [5] is T5, GRS (Glycyl-tRNA synthetase), purified recombinant (UniProt P41250 55-739, limits assumed).
T5 construct: also called 글리실-tRNA 합성효소
T5 sequence (looked up): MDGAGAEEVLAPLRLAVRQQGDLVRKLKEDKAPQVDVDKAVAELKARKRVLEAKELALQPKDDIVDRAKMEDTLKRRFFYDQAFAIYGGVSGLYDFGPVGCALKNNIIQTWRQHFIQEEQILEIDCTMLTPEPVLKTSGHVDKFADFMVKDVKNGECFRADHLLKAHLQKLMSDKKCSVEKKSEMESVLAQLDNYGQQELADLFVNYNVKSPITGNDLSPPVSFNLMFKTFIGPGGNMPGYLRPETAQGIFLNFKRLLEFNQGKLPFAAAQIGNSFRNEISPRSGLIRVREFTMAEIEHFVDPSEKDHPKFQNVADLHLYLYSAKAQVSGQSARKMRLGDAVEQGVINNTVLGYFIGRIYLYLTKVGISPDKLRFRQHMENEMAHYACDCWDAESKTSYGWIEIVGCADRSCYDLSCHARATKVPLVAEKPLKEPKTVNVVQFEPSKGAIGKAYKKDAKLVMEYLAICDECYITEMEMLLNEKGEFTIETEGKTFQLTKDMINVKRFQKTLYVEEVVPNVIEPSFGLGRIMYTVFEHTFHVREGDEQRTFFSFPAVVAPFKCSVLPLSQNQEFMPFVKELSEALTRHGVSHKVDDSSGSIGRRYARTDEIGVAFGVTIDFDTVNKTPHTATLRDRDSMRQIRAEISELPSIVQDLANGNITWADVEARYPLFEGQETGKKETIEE
The assay is described as above.

Assay [6] addresses T6, SRS (Seryl-tRNA synthetase), purified recombinant (UniProt P49591 1-514, limits assumed).
T6 construct: also called 세릴-tRNA 합성효소
Described as above.

Assay [7] has as its target T7, NRS (Asparaginyl-tRNA synthetase), purified recombinant (UniProt O43776 1-548, limits assumed).
T7 construct: also called 아스파라기닐딜-tRNA 합성효소
T7 sequence (looked up): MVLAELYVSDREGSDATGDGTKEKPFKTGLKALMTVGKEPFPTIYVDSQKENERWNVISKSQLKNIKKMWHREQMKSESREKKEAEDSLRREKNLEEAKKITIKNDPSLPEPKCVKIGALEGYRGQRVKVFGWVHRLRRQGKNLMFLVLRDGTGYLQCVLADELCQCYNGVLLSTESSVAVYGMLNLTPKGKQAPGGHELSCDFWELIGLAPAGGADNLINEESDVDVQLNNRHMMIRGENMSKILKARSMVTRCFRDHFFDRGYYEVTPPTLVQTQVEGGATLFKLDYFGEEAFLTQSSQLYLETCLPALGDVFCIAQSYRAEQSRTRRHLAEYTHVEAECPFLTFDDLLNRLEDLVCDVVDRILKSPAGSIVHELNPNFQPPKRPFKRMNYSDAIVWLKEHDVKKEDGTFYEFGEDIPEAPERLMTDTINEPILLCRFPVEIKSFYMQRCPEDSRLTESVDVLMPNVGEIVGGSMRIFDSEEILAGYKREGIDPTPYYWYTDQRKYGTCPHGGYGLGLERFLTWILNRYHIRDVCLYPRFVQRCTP
The description is as above.

Assay [8] addresses T8, WRS (Tryptophanyl-tRNA synthetase), purified recombinant (UniProt P23381 1-471, limits assumed).
T8 construct: also called 트립토파닐-tRNA 합성효소
T8 sequence (looked up): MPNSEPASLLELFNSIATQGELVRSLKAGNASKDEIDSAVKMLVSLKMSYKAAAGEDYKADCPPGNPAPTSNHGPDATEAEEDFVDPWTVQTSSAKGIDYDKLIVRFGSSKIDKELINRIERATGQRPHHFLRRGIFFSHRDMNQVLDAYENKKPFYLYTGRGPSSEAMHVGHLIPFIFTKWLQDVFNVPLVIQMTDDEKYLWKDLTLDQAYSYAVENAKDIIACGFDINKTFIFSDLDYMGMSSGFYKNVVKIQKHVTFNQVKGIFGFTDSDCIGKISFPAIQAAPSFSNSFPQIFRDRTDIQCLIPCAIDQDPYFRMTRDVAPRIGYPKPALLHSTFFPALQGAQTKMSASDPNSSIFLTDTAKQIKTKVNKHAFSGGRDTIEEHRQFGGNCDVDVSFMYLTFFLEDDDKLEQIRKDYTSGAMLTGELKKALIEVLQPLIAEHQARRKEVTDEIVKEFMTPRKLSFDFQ
The description is as above.

T6 sequence (P49591 whole entry): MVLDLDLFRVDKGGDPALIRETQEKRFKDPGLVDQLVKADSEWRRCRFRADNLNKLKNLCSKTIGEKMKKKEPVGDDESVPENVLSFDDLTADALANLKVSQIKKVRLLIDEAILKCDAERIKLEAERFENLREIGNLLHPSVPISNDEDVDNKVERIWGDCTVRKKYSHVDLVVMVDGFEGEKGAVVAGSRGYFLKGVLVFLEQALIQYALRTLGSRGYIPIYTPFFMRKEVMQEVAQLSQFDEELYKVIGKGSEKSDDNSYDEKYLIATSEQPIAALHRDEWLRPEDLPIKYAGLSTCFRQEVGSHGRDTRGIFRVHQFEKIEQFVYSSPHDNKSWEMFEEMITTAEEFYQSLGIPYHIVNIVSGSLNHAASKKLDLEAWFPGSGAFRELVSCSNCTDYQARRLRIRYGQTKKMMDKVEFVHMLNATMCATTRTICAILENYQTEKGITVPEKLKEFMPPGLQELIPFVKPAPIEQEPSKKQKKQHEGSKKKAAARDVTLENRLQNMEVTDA

B1: anti-HRS scFv Biocon-H1 (scFv)
scFv: EVQLLESGGGLVQPGGSLRLSCAASGFTFSGYYMSWVRQAPGKGLEWVSLISHGGGNIYYADSVKGRFTISRDNSKNTLYLQMNSLRAEDTAVYYCARFPLEFDYWGQGTLVTVSSGGGGSGGGGSGGGGSQSVLTQPPSASGTPGQRVTISCTGSSSNIGSNAVSWYQQLPGTAPKLLIYDDNKRPSGVLDRFSGSKSGTSASLAISGLRSEDEADYYCGTWDDSLSGYVFGGGTKLTVL
notes: Single clone from a human VH3-23/VL1g phage scFv library, expressed in E. coli periplasm; Periplasmic extract was used in the western blot and Luminex assay, Ni-NTA-purified scFv in SPR and ELISA; also called 항 HRS scFv 항체; 본 발명의 항체; not shown: tags from the pComb3X vector (purified on Ni-NTA, detected with anti-HA)
By Kd is commonly meant a measure of binding affinity in units of concentration. As for B1, the dissociation constant Kd in assay [1] was 70 nM. The binding result in assay [2], in assay [3], in assay [4], in assay [5], in assay [6] and in assay [7] was “no binding” throughout. Moreover, in assay [8], the binding result was “no binding”.
